Reference: patent publication US20220125837A1, “METHODS FOR CONTROLLED ELIMINATION OF THERAPEUTIC CELLS” (Bellicum Pharmaceuticals, Inc., priority 2014, published 2022)

Test system: HEK293T/16 cells
Experiment: Secreted alkaline phosphatase (SEAP) surrogate killing assay of iCasp9 mutants
Format: cell-based, human
Conditions: for relative SEAP activity Units (basal activity): no AP1903; for basal activity, in words: SEAP assay without AP1903, relative to wild type Caspase-9
Experimental: Early passage HEK293T/16 cells (ATCC, Manassas, Va.) were maintained in IMDM, GlutaMAX™ (Life Technologies, Carlsbad, Calif.) supplemented with 10% FBS, 100 U/mL penicillin, and 100 U/mL streptomycin until transfection in a humidified, 37° C., 5% CO2/95% air atmosphere. Cells in logarithmic-phase growth were transiently transfected with 800 ng to 2 μg of expression plasmid encoding iCasp9 mutants and 500 ng of an expression plasmid encoding SRα promoter driven SEAP per million cells in 15-mL conical tubes. […] GeneJammer® Transfection Reagent at a ratio of 3 μl per ug of plasmid DNA was used to transiently transfect HEK293T/16 cells in the absence of antibiotics. 100 μl or 2 mL of the transfection mixture was added to each well in 96-well or 6-well plate, respectively.
Briefly, after 65° C. heat denaturation for 45 minutes to reduce background caused by endogenous (and serum-derived) alkaline phosphatases that are sensitive to heat, 5 μl of supernatants was added to 95 μl of PBS and added to 100 μl of substrate buffer, containing 1 μl of 100 mM 4-methylumbelliferyl phosphate (4-MUP; Sigma, St. Louis, Mo.) re-suspended in 2 M diethanolamine. Hydrolysis of 4-MUP by SEAP produces a fluorescent substrate with excitation/emission (355/460 nm), which can be easily measured. […] 1000-ul of the mixture was seeded onto each well of a 96-well plate. […] For the assay, 4-methylumbelliferyl phosphate substrate was hydrolyzed by SEAP to 4-methylumbelliferon, a metabolite that can be excited with 364 nm and detected with an emission filter of 448 nm. Since SEAP is used as a marker for cell viability, reduced SEAP reading corresponds with increased iCaspase-9 activities.

Row | Molecule | basal activity, in words | other results
1 | D330A-N405Q: modified Caspase-9 polypeptide having a substitution at position 330 and a substitution at position 405 (protein, UniProt P55211 1-416, looked up, variant D330A N405Q, iCasp9, fused to FKBP12 F36V domain) MDEADRRLLRRCRLRLVEELQVDQLWDALLSRELFRPHMIEDIQRAGSGSRRDQARQLIIDLETRGSQALPLFISCLEDTGQDMLASFLRTNRQAAKLSKPTLENLTPVVLRPEIRKPEVLRPETPRPVDIGSGGFGDVGALESLRGNADLAYILSMEPCGHCLIINNVNFCRESGLRTRTGSNIDCEKLRRRFSSLHFMVEVKGDLTAKKMVLALLELAQQDHGALDCCVVVILSHGCQASHLQFPGAVYGTDGCPVSVEKIVNIFNGTSCPSLGGKPKLFFIQACGGEQKDHGFEVASTSPEDESPGSNPEPDATPFQEGLRTFDQLAAISSLPTPSDIFVSYSTFPGFVSWRDPKSGSWYVETLDDIFEQWAHSEDLQSLLLRVANAVSVKGIYKQMPGCFQFLRKKLFFKTS | intermediate | relative SEAP activity Units (basal activity) (1 μg iCasp9 per million cells, higher SEAP = lower basal activity): 205772; relative SEAP activity Units (basal activity) (2 μg iCasp9 per million cells): 174366; basal activity, in words (listed as iCasp9 D330A N405Q): low to undetectable basal activity
2 | ^402GCFNF^406ISAQT: Caspase-9 polypeptide with the equivalent 5 residues from Caspase-10 (protein, UniProt P55211 1-416, looked up, variant G402I C403S F404A N405Q F406T) MDEADRRLLRRCRLRLVEELQVDQLWDALLSRELFRPHMIEDIQRAGSGSRRDQARQLIIDLETRGSQALPLFISCLEDTGQDMLASFLRTNRQAAKLSKPTLENLTPVVLRPEIRKPEVLRPETPRPVDIGSGGFGDVGALESLRGNADLAYILSMEPCGHCLIINNVNFCRESGLRTRTGSNIDCEKLRRRFSSLHFMVEVKGDLTAKKMVLALLELAQQDHGALDCCVVVILSHGCQASHLQFPGAVYGTDGCPVSVEKIVNIFNGTSCPSLGGKPKLFFIQACGGEQKDHGFEVASTSPEDESPGSNPEPDATPFQEGLRTFDQLDAISSLPTPSDIFVSYSTFPGFVSWRDPKSGSWYVETLDDIFEQWAHSEDLQSLLLRVANAVSVKGIYKQMPISAQTLRKKLFFKTS | reduced basal activity | –
3 | N405F: chimeric modified Caspase-9 polypeptide (protein, UniProt P55211 1-416, looked up, variant N405F, fused to FKBP12 F36V dimerization domain, chimeric modified Caspase-9 polypeptide) MDEADRRLLRRCRLRLVEELQVDQLWDALLSRELFRPHMIEDIQRAGSGSRRDQARQLIIDLETRGSQALPLFISCLEDTGQDMLASFLRTNRQAAKLSKPTLENLTPVVLRPEIRKPEVLRPETPRPVDIGSGGFGDVGALESLRGNADLAYILSMEPCGHCLIINNVNFCRESGLRTRTGSNIDCEKLRRRFSSLHFMVEVKGDLTAKKMVLALLELAQQDHGALDCCVVVILSHGCQASHLQFPGAVYGTDGCPVSVEKIVNIFNGTSCPSLGGKPKLFFIQACGGEQKDHGFEVASTSPEDESPGSNPEPDATPFQEGLRTFDQLDAISSLPTPSDIFVSYSTFPGFVSWRDPKSGSWYVETLDDIFEQWAHSEDLQSLLLRVANAVSVKGIYKQMPGCFFFLRKKLFFKTS | lowered basal activity | –
4 | D327G: chimeric modified Caspase-9 polypeptide (protein) VDGFGDVGALESLRGNADLAYILSMEPCGHCLIINNVNFCRESGLRTRTGSNIDCEKLRRRFSSLHFMVEVKGDLTAKKMVLALLELARQDHGALDCCVVVILSHGCQASHLQFPGAVYGTDGCPVSVEKIVNIFNGTSCPSLGGKPKLFFIQACGGEQKDHGFEVASTSPEDESPGSNPEPDATPFQEGLRTFGQLDAISSLPTPSDIFVSYSTFPGFVSWRDPKSGSWYVETLDDIFEQWAHSEDLQSLLLRVANAVSVKGIYKQMPGCFNFLRKKLFFKTSASRA | did not lower basal activity | –
5 | Q328R: chimeric modified Caspase-9 polypeptide (protein) VDGFGDVGALESLRGNADLAYILSMEPCGHCLIINNVNFCRESGLRTRTGSNIDCEKLRRRFSSLHFMVEVKGDLTAKKMVLALLELARQDHGALDCCVVVILSHGCQASHLQFPGAVYGTDGCPVSVEKIVNIFNGTSCPSLGGKPKLFFIQACGGEQKDHGFEVASTSPEDESPGSNPEPDATPFQEGLRTFDRLDAISSLPTPSDIFVSYSTFPGFVSWRDPKSGSWYVETLDDIFEQWAHSEDLQSLLLRVANAVSVKGIYKQMPGCFNFLRKKLFFKTSASRA | did not lower basal activity | –
6 | Q328K: chimeric modified Caspase-9 polypeptide (protein) VDGFGDVGALESLRGNADLAYILSMEPCGHCLIINNVNFCRESGLRTRTGSNIDCEKLRRRFSSLHFMVEVKGDLTAKKMVLALLELARQDHGALDCCVVVILSHGCQASHLQFPGAVYGTDGCPVSVEKIVNIFNGTSCPSLGGKPKLFFIQACGGEQKDHGFEVASTSPEDESPGSNPEPDATPFQEGLRTFDKLDAISSLPTPSDIFVSYSTFPGFVSWRDPKSGSWYVETLDDIFEQWAHSEDLQSLLLRVANAVSVKGIYKQMPGCFNFLRKKLFFKTSASRA | did not lower basal activity | –
7 | F326K: chimeric modified Caspase-9 polypeptide (protein) VDGFGDVGALESLRGNADLAYILSMEPCGHCLIINNVNFCRESGLRTRTGSNIDCEKLRRRFSSLHFMVEVKGDLTAKKMVLALLELARQDHGALDCCVVVILSHGCQASHLQFPGAVYGTDGCPVSVEKIVNIFNGTSCPSLGGKPKLFFIQACGGEQKDHGFEVASTSPEDESPGSNPEPDATPFQEGLRTKDQLDAISSLPTPSDIFVSYSTFPGFVSWRDPKSGSWYVETLDDIFEQWAHSEDLQSLLLRVANAVSVKGIYKQMPGCFNFLRKKLFFKTSASRA | did not lower basal activity | –
8 | L329K: chimeric modified Caspase-9 polypeptide (protein) VDGFGDVGALESLRGNADLAYILSMEPCGHCLIINNVNFCRESGLRTRTGSNIDCEKLRRRFSSLHFMVEVKGDLTAKKMVLALLELARQDHGALDCCVVVILSHGCQASHLQFPGAVYGTDGCPVSVEKIVNIFNGTSCPSLGGKPKLFFIQACGGEQKDHGFEVASTSPEDESPGSNPEPDATPFQEGLRTFDQKDAISSLPTPSDIFVSYSTFPGFVSWRDPKSGSWYVETLDDIFEQWAHSEDLQSLLLRVANAVSVKGIYKQMPGCFNFLRKKLFFKTSASRA | did not lower basal activity | –
9 | D327R: chimeric modified Caspase-9 polypeptide (protein) VDGFGDVGALESLRGNADLAYILSMEPCGHCLIINNVNFCRESGLRTRTGSNIDCEKLRRRFSSLHFMVEVKGDLTAKKMVLALLELARQDHGALDCCVVVILSHGCQASHLQFPGAVYGTDGCPVSVEKIVNIFNGTSCPSLGGKPKLFFIQACGGEQKDHGFEVASTSPEDESPGSNPEPDATPFQEGLRTFRQLDAISSLPTPSDIFVSYSTFPGFVSWRDPKSGSWYVETLDDIFEQWAHSEDLQSLLLRVANAVSVKGIYKQMPGCFNFLRKKLFFKTSASRA | did not lower basal activity | –
10 | T317C: chimeric modified Caspase-9 polypeptide (protein) VDGFGDVGALESLRGNADLAYILSMEPCGHCLIINNVNFCRESGLRTRTGSNIDCEKLRRRFSSLHFMVEVKGDLTAKKMVLALLELARQDHGALDCCVVVILSHGCQASHLQFPGAVYGTDGCPVSVEKIVNIFNGTSCPSLGGKPKLFFIQACGGEQKDHGFEVASTSPEDESPGSNPEPDACPFQEGLRTFDQLDAISSLPTPSDIFVSYSTFPGFVSWRDPKSGSWYVETLDDIFEQWAHSEDLQSLLLRVANAVSVKGIYKQMPGCFNFLRKKLFFKTSASRA | no effect | –
11 | A331K: chimeric modified Caspase-9 polypeptide (protein) VDGFGDVGALESLRGNADLAYILSMEPCGHCLIINNVNFCRESGLRTRTGSNIDCEKLRRRFSSLHFMVEVKGDLTAKKMVLALLELARQDHGALDCCVVVILSHGCQASHLQFPGAVYGTDGCPVSVEKIVNIFNGTSCPSLGGKPKLFFIQACGGEQKDHGFEVASTSPEDESPGSNPEPDATPFQEGLRTFDQLDKISSLPTPSDIFVSYSTFPGFVSWRDPKSGSWYVETLDDIFEQWAHSEDLQSLLLRVANAVSVKGIYKQMPGCFNFLRKKLFFKTSASRA | did not lower basal activity | –
12 | L329G: chimeric modified Caspase-9 polypeptide (protein) VDGFGDVGALESLRGNADLAYILSMEPCGHCLIINNVNFCRESGLRTRTGSNIDCEKLRRRFSSLHFMVEVKGDLTAKKMVLALLELARQDHGALDCCVVVILSHGCQASHLQFPGAVYGTDGCPVSVEKIVNIFNGTSCPSLGGKPKLFFIQACGGEQKDHGFEVASTSPEDESPGSNPEPDATPFQEGLRTFDQGDAISSLPTPSDIFVSYSTFPGFVSWRDPKSGSWYVETLDDIFEQWAHSEDLQSLLLRVANAVSVKGIYKQMPGCFNFLRKKLFFKTSASRA | did not lower basal activity | –
13 | D327K: chimeric modified Caspase-9 polypeptide (protein) VDGFGDVGALESLRGNADLAYILSMEPCGHCLIINNVNFCRESGLRTRTGSNIDCEKLRRRFSSLHFMVEVKGDLTAKKMVLALLELARQDHGALDCCVVVILSHGCQASHLQFPGAVYGTDGCPVSVEKIVNIFNGTSCPSLGGKPKLFFIQACGGEQKDHGFEVASTSPEDESPGSNPEPDATPFQEGLRTFKQLDAISSLPTPSDIFVSYSTFPGFVSWRDPKSGSWYVETLDDIFEQWAHSEDLQSLLLRVANAVSVKGIYKQMPGCFNFLRKKLFFKTSASRA | did not lower basal activity | –
